How the values were obtained:
[1] = system: Tobacco (Nicotiana tabacum L. cv Xanthi) callus; test: Fatty acid analysis (GC, GC-MS) of transgenic tobacco callus expressing the cDNA; assay type: cell-based; conditions: pBI121, 35S promoter, highest amount
Description: The cDNAs encoding fatty acid modifying enzymes associated with conjugated double bond synthesis in seeds of Impatiens balsamina and Momordica charantia were introduced into a plant expression vector designated pML63. Vector pML63 contains the uidA gene (which encodes the GUS enzyme) operably linked to the CaMV35S promoter and 3′ NOS sequence. pML63 is modified from pMH40 to produce a minimal 3′ NOS terminator fragment. pMH 40 is described in WO 98/16650 which was published on Apr. 23, 1998, the disclosure of which are hereby incorporated by reference. Using standard techniques familiar to those skilled in the art, the 770 base pair terminator sequence contained in pMH40 was replaced with a new 3′ NOS terminator sequence comprising nucleotides 1277 to 1556 of the sequence published by Depicker et al. (1982, J. Appl. Genet. 1:561–574). A chimeric gene was constructed comprising cDNAs encoding fatty acid modifying enzymes associated with conjugated double bond synthesis in seeds of Impatiens balsamina and Momordica charantia in sense orientation with respect to the cauliflower mosaic virus 35S promoter that is located 5′ to the cDNA fragment and termination sequences from the nopaline synthase (NOS) that are located 3′ to the cDNA fragment. The cDNAs for the Impatiens polypeptide was introduced in the NcoI and EcoRI sites of the vector pML63. The cDNA for the Momordica polypeptide was introduced into the NcoI and SmaI sites of the vector pML63. The NcoI and EcoRI sites flanking the Impatiens cDNA were generated by PCR amplification of the cDNAs using oligonucleotide primers that contained these restriction sites (SEQ ID NO:7 and SEQ ID NO:8, for the sense and antisense oligonucleotides, respectively). PCR amplification was conducted using the Pfu DNA polymerase. The NcoI site flanking the 5′ end of the Momordica cDNA was generated by PCR amplification in a similar manner (SEQ ID NO:9 and SEQ ID NO:10). The 3′ end of the PCR-generated Momordica cDNA was blunt-ended which allowed for cloning into the SmaI site of the vector pML63. The resulting fusions of the cauliflower mosaic virus 35S promoter with the cDNAs encoding fatty acid modifying enzymes associated with conjugated double bond synthesis in seeds of Impatiens balsamina or Momordica charantia and NOS termination sequences were released from the vector pML63 by digestion with XbaI. The resulting XbaI fragment was ligated into the corresponding site of the binary vector pZS199 The vector pZS199 contains the following elements: (1) the chimeric gene nopaline synthase/neomycin phosphotransferase as a selectable marker for transformed plant cells (Brevan et al. (1984) Nature 304:184–186), (2) the left and right borders of the T-DNA of the Ti plasmid (Brevan et al. (1984) Nucl. Acids Res. 12:8711–8720), (3) the E. coli lacZ-complementing segment (Vieria and Messing (1982) Gene 19:259–267) with unique restriction endonuclease sites for EcoRI, KpnI, BamHI, XbaI and SalI, (4) the bacterial replication origin from the Pseudomonas plasmid pVS1 (Itoh et al. (1984) Plasmid 11:206–220), and (5) the bacterial neomycin phosphotransferase gene from Tn5 (Berg et al. (1975) Proc. Natl. Acad. Sci. U.S.A. 72:3628–3632) as a selectable marker for transformed A. tumefaciens. The nopaline synthase promoter in the plant selectable marker was replaced by the 35S promoter (Odell et al. (1985) Nature, 313:810–813) by a standard restriction endonuclease digestion and ligation strategy.
Gene fusions of the Impatiens balsamina or Momordica charantia cDNAs with the cauliflower mosaic virus 35S promoter and the NOS termination sequences in vector pZS199 were introduced into Agrobacterium tumefaciens strain LBA4404. […]

soybean embryos = test: Fatty acid composition of transgenic soybean somatic embryos (GC, GC-MS); assay type: cell-based
Method: Gene fusions of the Impatiens balsamina or Momordica charantia cDNAs with the conglycinin promoter and phaseolin termination sequences in vector pKS67 were introduced into soybean embryos using the particle bombardment method of transformation. To induce somatic embryos, cotyledons, 3–5 mm in length dissected from surface sterilized, immature seeds of a soybean cultivar A2872 or JACK-910 were cultured in the light or dark at 26° C. on an appropriate agar medium for 6–10 weeks. Somatic embryos that produce secondary embryos were then excised and placed into a suitable liquid medium. After repeated selection for clusters of somatic embryos that multiplied as early, globular staged embryos, the suspensions were maintained as described below.
Soybean embryogenic suspension cultures were then transformed with the vector pKS67 containing the Impatiens or Momordica cDNA for fatty acid modifying enzymes associated with conjugated double synthesis by the method of particle gun bombardment (Klein et al. (1987) Nature (London) 327:70, U.S. Pat. No. 4,945,050). A DuPont Biolistic™ PDS1000/HE instrument (helium retrofit) was used for these transformations.
Five to seven days post bombardment, the liquid media was exchanged with fresh media, and eleven to twelve days post bombardment with fresh media containing […] hygromycin. This selective media was refreshed weekly. Seven to eight weeks post bombardment, green, transformed tissue was observed growing from untransformed, necrotic embryogenic clusters. Isolated green tissue was removed and inoculated into individual flasks to generate new, clonally propagated, transformed embryogenic suspension cultures. Each new line was treated as an independent transformation event. These suspensions were then subcultured and maintained as clusters of immature embryos.
Transgenic soybean embryos selected and maintained in this manner were analyzed for eleostearic acid and parinaric acid content using methods described in Example 4 (Table 1). Individual embryos expressing either the Impatiens or Momordica fatty acid modifying enzyme for conjugated double bond synthesis were homogenized in 1% (w/v) sodium methoxide in methanol. Fatty acid methyl esters resulting from this transesterification step were analyzed by both GC and GC-MS as described in Example 4. Methyl esters of eleostearic and parinaric acids were identified in transgenic soybean extracts by comparison of retention times and mass spectra with those of fatty acid methyl esters prepared from seeds of Impatiens balsamina and Momordica charantia. […] In soybean embryos expressing the Momordica enzyme, eleostearic acid was detected principally as α-eleostearic acid with lesser amounts of at least two other cis-trans isomers of eleostearic acid. […]

[2] = soybean embryos, six independent transgenic lines (n = 6), ± standard deviation, % of total oil weight

B1: ChrFad2: Chrysobalanus icaco fatty acid modifying enzyme associated with conjugated double bond synthesis, SEQ ID NO:20, cDNA SEQ ID NO:19 (protein)
chain: MGAGGQKTFPRLEEEEKQQQAAAAGFKRIPTTKPPFTLSDLKKAIPPHCFQRSLLRSFSYVFIDLTIISILGYIGATYICLLPPPSKYLAWLLYWAVQGCFFTGAWALAHDCGHHAFSDYQWIDDAVGMVLHSTLMVPYFSFKYSHRRHHSNINSLERDEVFVPRPKSKIKWYCSKYLNNPLGRVLTLAVTLILGWPMYLALNASGRDYDRFVSHFYPYGPIYNDRERLQIYISDAGIFIVSYVLYQVALAKGLPWLICIYGVPLFVNNALVVTITYLQHTHPELPRYGNSEWDWFKGTLATVDRDMGPLLNWATHHVSDTHYVHHLFSTMPHYHGVEATKAVKPMLGEYYRFDPTPLYKALWREAKECLFVEPDSKSPGVFWFDKF
modifications: Chrysobalanus icaco
α-eleostearic acid of the total fatty acids of callus samples [1]: ≤ 4.7 wt %
α-paranaric acid of the total fatty acids of callus samples [1]: ≤ 0.4 wt %
16:0 (soybean embryos; soybean embryos, single embryos from six independent transgenic lines (n = 6), ± standard deviation, % of total oil weight): 7.0 ± 1.4 Weight %
18:0 (soybean embryos; [2]): 1.9 ± 0.6 Weight %
18:1 (soybean embryos; [2]): 37.6 ± 6.2 Weight %
18:2 (soybean embryos; [2]): 28.1 ± 3.8 Weight %
18:3 (soybean embryos; [2]): 6.0 ± 2.5 Weight %
α-Parinaric (soybean embryos; [2]): 0.9 ± 0.3 Weight %
Eleostearic (soybean embryos; soybean embryos, six independent transgenic lines (n = 6), includes cis-trans isomers of α-eleostearic acid (<1.0 wt %)): 16.4 ± 2.4 Weight %
Other (soybean embryos; soybean embryos, six independent transgenic lines (n = 6), primarily 20:0, 20:1, 22:0, and 22:1): <2.1 Weight %
α-paranaric acid of the total fatty acids (soybean embryos; soybean somatic embryos, β-conglycinin promoter): approximately 1 wt %
α-eleostearic acid of the total fatty acids (soybean embryos; soybean somatic embryos, β-conglycinin promoter, highest amount): ≤ 21 wt %
